Publication doi:10.1101/2022.01.19.477021, “The Intrinsically Disordered Region of Coronins Fine-tunes Oligomerization and Actin Polymerization” (bioRxiv, 2022)
“And” between values parts separate entries of the source, which are not always exact repeats. Identical values can stand only once.

Legend:
[1] = target: the molecule itself; assay: SEC + other: negative-stain transmission electron microscopy; Superdex 200 increase 10/30 column in a pH 8 Tris-buffer with 150 mM NaCl; TEM of 1 µM protein in F-buffer
[2] = target: the molecule itself; assay: AUC; sedimentation velocity; 50 mM Tris pH 8.0, 150 mM NaCl, 20 °C, 30,000 or 45,000 rpm; c(s) and c(s,ff0) models in SEDFIT; samples at 3-9.2 µM
[3] = target: rabbit skeletal muscle actin (RMA), filamentous (F-actin) (rabbit, UniProt P68135 1-377); assay: co-sedimentation; high-speed actin cosedimentation: a range of concentrations of Crn1 variant with a fixed concentration of pre-polymerized actin filaments in F-buffer, room temperature 30 min, 100,000 x g 20 min at 25°C; bound against free coronin fitted with the Hill equation; details: both partners purified

Binder | binding result [1] | stoichiometry N [2] | Kd [3] [µM]
Crn1-ΔIDR (Crn1 lacking the IDR, aa 401-604) (natural protein, S. cerevisiae, UniProt Q06440 1-651, looked up, Crn1 (coronin), S. cerevisiae, residues 1-651 with the IDR (401-604) deleted; made from the pSY5-Crn1-FL plasmid; source: E. coli Rosetta (DE3), purified (HisTrap, SEC when necessary)) MSGKFVRASKYRHVFGQAAKKELQYEKLKVTNNAWDSNLLKTNGKFIAVNWNASGGGAFAVIPIEEVGKAPDQVPLFRGHTAQVLDTDFDPFNDHRIASGSDDSKIGIWDIPENYKFHDHVDEDGEPIDIKPVKFLTGHARKVGHVLYHPVAENVLASSSGDYTVKLWNVETGKDMITLKHPDMVTSMSFSYDGNYLATVARDKKLRVWNIREEKIVSEGPAHTGAKNQRVVWLGNSDRLATTGFSKLSDRQIGIWDAFNIEKGDLGGFYTVDQSSGILMPFYDEGNKILYLVGKGDGNIRYYEFQNDELFELSEFQSTEAQRGFAVAPKRMVNVKENEVLKGFKTVVDQRIEPVSFFVPRRSEEFQEDIYPDAPSNKPALTAEEWFSGKSVEGPILVSMLGLKKSVEKLSTLVLQLEDVVDKLTKANLDKDERLLKLEQKIGELSK | binds | – | –
LGLKKSVEKLSTLVLQLEDVVDKLTKANLDKDERLLKLEQKIGELSK (domain or fragment, S. cerevisiae, UniProt Q06440 605-651, looked up, Crn1 (coronin), S. cerevisiae, residues 605-651, coiled-coil domain; made by truncating 401-604 from the Crn1-ΔN (401-651) plasmid; The introduction gives the CC domain as aa 600-651; also called CC domain; source: E. coli Rosetta (DE3), purified (HisTrap, SEC when necessary)) [Crn1-CC (C-terminal coiled-coil domain, aa 605-651)] | – | ~15 | –
Crn1ΔIDR-S (Crn1 with a short 40-aa middle fragment of the IDR) (natural protein, S. cerevisiae, UniProt Q06440 1-651, looked up, Crn1 (coronin), S. cerevisiae, residues 1-651 with 401-483 and 524-601 excluded by a two-step truncation of the full-length plasmid; short IDR 484-523 kept; By the stated limits residues 602-604 of the IDR stay in the construct; source: E. coli Rosetta (DE3), purified (HisTrap, SEC when necessary)) MSGKFVRASKYRHVFGQAAKKELQYEKLKVTNNAWDSNLLKTNGKFIAVNWNASGGGAFAVIPIEEVGKAPDQVPLFRGHTAQVLDTDFDPFNDHRIASGSDDSKIGIWDIPENYKFHDHVDEDGEPIDIKPVKFLTGHARKVGHVLYHPVAENVLASSSGDYTVKLWNVETGKDMITLKHPDMVTSMSFSYDGNYLATVARDKKLRVWNIREEKIVSEGPAHTGAKNQRVVWLGNSDRLATTGFSKLSDRQIGIWDAFNIEKGDLGGFYTVDQSSGILMPFYDEGNKILYLVGKGDGNIRYYEFQNDELFELSEFQSTEAQRGFAVAPKRMVNVKENEVLKGFKTVVDQRIEPVSFFVPRRSEEFQEDIYPDAPSNKPALTAEEWFSGKSVEGPILVSMSSDIDQVNNAEDPSRDTSGWEEADDEPAPIKIETPVTPTEPKSLGLKKSVEKLSTLVLQLEDVVDKLTKANLDKDERLLKLEQKIGELSK | – | 3 and 6 | –
Crn1 full-length (Crn1-FL), recombinant from E. coli (natural protein, S. cerevisiae, UniProt Q06440 1-651, looked up, Crn1 (coronin), S. cerevisiae, residues 1-651; Vector pET-21d(+)(pSY5) adds an 8x histidine tag and an HRV 3C protease site at the N-terminus; cleavage is not described; By AUC-SV a mix of monomers and tetramers; also called WT Crn1; source: E. coli Rosetta (DE3), purified (HisTrap, SEC when necessary)) MSGKFVRASKYRHVFGQAAKKELQYEKLKVTNNAWDSNLLKTNGKFIAVNWNASGGGAFAVIPIEEVGKAPDQVPLFRGHTAQVLDTDFDPFNDHRIASGSDDSKIGIWDIPENYKFHDHVDEDGEPIDIKPVKFLTGHARKVGHVLYHPVAENVLASSSGDYTVKLWNVETGKDMITLKHPDMVTSMSFSYDGNYLATVARDKKLRVWNIREEKIVSEGPAHTGAKNQRVVWLGNSDRLATTGFSKLSDRQIGIWDAFNIEKGDLGGFYTVDQSSGILMPFYDEGNKILYLVGKGDGNIRYYEFQNDELFELSEFQSTEAQRGFAVAPKRMVNVKENEVLKGFKTVVDQRIEPVSFFVPRRSEEFQEDIYPDAPSNKPALTAEEWFSGKSVEGPILVSMRSIYDGSAPSFHEAKRPQQPTTQETALEEKKEQPKVEKPISESEKEVKQEAPKSPSPLKSASSSSTINHVLKEDNSINKLLKKSSDIDQVNNAEDPSRDTSGWEEADDEPAPIKIETPVTPTETKKDRTPKVEPSKELKPEPVSIATDRKQEQSLPQEEKSSEKTKSPEQEKSATPPSSITAAKTAITASSKEEPSAARTSPKSLGLKKSVEKLSTLVLQLEDVVDKLTKANLDKDERLLKLEQKIGELSK | – | 4 | 0.24
yeast purified full-length Crn1 (yCrn1-FL) (natural protein, S. cerevisiae, UniProt Q06440 1-651, looked up, Crn1 (coronin), S. cerevisiae, full length; The text says C-terminal 6xHis-tagged, but names the vector as pGAL-ORF-3×StreptagII-9×His; source: S. cerevisiae (strain YMY2043, galactose-induced overexpression), purified (HisTrap)) MSGKFVRASKYRHVFGQAAKKELQYEKLKVTNNAWDSNLLKTNGKFIAVNWNASGGGAFAVIPIEEVGKAPDQVPLFRGHTAQVLDTDFDPFNDHRIASGSDDSKIGIWDIPENYKFHDHVDEDGEPIDIKPVKFLTGHARKVGHVLYHPVAENVLASSSGDYTVKLWNVETGKDMITLKHPDMVTSMSFSYDGNYLATVARDKKLRVWNIREEKIVSEGPAHTGAKNQRVVWLGNSDRLATTGFSKLSDRQIGIWDAFNIEKGDLGGFYTVDQSSGILMPFYDEGNKILYLVGKGDGNIRYYEFQNDELFELSEFQSTEAQRGFAVAPKRMVNVKENEVLKGFKTVVDQRIEPVSFFVPRRSEEFQEDIYPDAPSNKPALTAEEWFSGKSVEGPILVSMRSIYDGSAPSFHEAKRPQQPTTQETALEEKKEQPKVEKPISESEKEVKQEAPKSPSPLKSASSSSTINHVLKEDNSINKLLKKSSDIDQVNNAEDPSRDTSGWEEADDEPAPIKIETPVTPTETKKDRTPKVEPSKELKPEPVSIATDRKQEQSLPQEEKSSEKTKSPEQEKSATPPSSITAAKTAITASSKEEPSAARTSPKSLGLKKSVEKLSTLVLQLEDVVDKLTKANLDKDERLLKLEQKIGELSK | – | 4 and 6 | –
Crn1-ΔN (IDR and CC domains, aa 401-651) (domain or fragment, S. cerevisiae, UniProt Q06440 401-651, looked up, Crn1 (coronin), S. cerevisiae, residues 401-651 (IDR and CC domain); source: E. coli Rosetta (DE3), purified (HisTrap, SEC when necessary)) RSIYDGSAPSFHEAKRPQQPTTQETALEEKKEQPKVEKPISESEKEVKQEAPKSPSPLKSASSSSTINHVLKEDNSINKLLKKSSDIDQVNNAEDPSRDTSGWEEADDEPAPIKIETPVTPTETKKDRTPKVEPSKELKPEPVSIATDRKQEQSLPQEEKSSEKTKSPEQEKSATPPSSITAAKTAITASSKEEPSAARTSPKSLGLKKSVEKLSTLVLQLEDVVDKLTKANLDKDERLLKLEQKIGELSK | – | 4 | –
